Our source for the Kd values is article PMC4167974.

This test has as its target fluorescein-labeled BalhA1 leader peptide (Bacillus sp. Al Hakam). The test can be described thus: fluorescence polarisation.

What is called pKd is the Kd on a negative log10 scale, so that one unit is a factor of ten. A higher pKd goes with a low Kd.

pKd: −log10 of the molar value.

As to MBP-BalhC (natural protein), the negative-log Kd (pKd) was 4.96.
